According to US20240252628A1 (ACCELERON PHARMA, published 2024):

How the values were obtained:
[1] = biological target: T1, activin A (UniProt P08476 311-426); assay: SPR (Biacore), anti-Fc capture of receptor, 37 C
T1 construct: The same holds for m2-m11
T1 sequence (looked up): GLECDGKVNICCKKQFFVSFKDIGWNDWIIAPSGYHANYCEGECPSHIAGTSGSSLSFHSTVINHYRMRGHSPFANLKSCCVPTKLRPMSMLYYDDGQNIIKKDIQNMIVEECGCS
Method: (§1) A Biacore™-based binding assay was used to compare the ligand binding kinetics of an ActRIIB-Fc:ActRIIB(L79E)-Fc heterodimer with those of unmodified ActRIIB-Fc homodimer. Fusion proteins were captured onto the system using an anti-Fc antibody. Ligands were then injected and allowed to flow over the captured receptor protein at 37° C. Results are summarized in the table below, in which ligand off-rates (kd) most indicative of effective ligand traps are denoted in bold.

[2] = biological target: T2, BMP10 (UniProt O95393 317-424); assay: SPR (Biacore), anti-Fc capture of receptor, 37 C
T2 sequence (looked up): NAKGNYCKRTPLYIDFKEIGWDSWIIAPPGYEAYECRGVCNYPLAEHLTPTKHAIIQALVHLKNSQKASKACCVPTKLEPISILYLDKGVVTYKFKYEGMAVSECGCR
Method: as §1

fold faster off-rate than ActRIIB-Fc homodimer [1]: ~10 fold
fold faster off-rate than ActRIIB-Fc homodimer [2]: ~10 fold
B1: ActRIIB-Fc:ActRIIB(L79E)-Fc heterodimer (Fc fusion)
chain 1: GRGEAETRECIYYNANWELERTNQSGLERCEGEQDKRLHCYASWRNSSGTIELVKKGCWEDDFNCYDRQECVATEENPQVYFCCCEGNFCNERFTHLPEAGGPEVTYEPPPTAPTGGGTHTCPPCPAPELLGGPSVFLFPPKPKDTLMISRTPEVTCVVVDVSHEDPEVKFNWYVDGVEVHNAKTKPREEQYNSTYRVVSVLTVLHQDWLNGKEYKCKVSNKALPAPIEKTISKAKGQPREPQVYTLPPSREEMTKNQVSLTCLVKGFYPSDIAVEWESNGQPENNYDTTPPVLDSDGSFFLYSDLTVDKSRWQQGNVFSCSVMHEALHNHYTQKSLSLSPG
chain 2: GRGEAETRECIYYNANWELERTNQSGLERCEGEQDKRLHCYASWRNSSGTIELVKKGCWLDDFNCYDRQECVATEENPQVYFCCCEGNFCNERFTHLPEAGGPEVTYEPPPTAPTGGGTHTCPPCPAPELLGGPSVFLFPPKPKDTLMISRTPEVTCVVVDVSHEDPEVKFNWYVDGVEVHNAKTKPREEQYNSTYRVVSVLTVLHQDWLNGKEYKCKVSNKALPAPIEKTISKAKGQPREPQVYTLPPSRKEMTKNQVSLTCLVKGFYPSDIAVEWESNGQPENNYKTTPPVLKSDGSFFLYSKLTVDKSRWQQGNVFSCSVMHEALHNHYTQKSLSLSPGK
notes: the receptor domains are the same in both; also called ActRIIB-Fc:ActRIIB(L79E)-Fc heteromer
